Assay results taken from article PMC4641749 (Molecular microbiology, 2015).
Positions count from the first letter of the chain named. In names and notes the source's numbering stands. Where two headings read alike, the source gives them in different places.

B1: FtsZ (wild type, Escherichia coli) (natural protein, E. coli, UniProt P0A9A6 1-383, looked up)
chain: MFEPMELTNDAVIKVIGVGGGGGNAVEHMVRERIEGVEFFAVNTDAQALRKTAVGQTIQIGSGITKGLGAGANPEVGRNAADEDRDALRAALEGADMVFIAAGMGGGTGTGAAPVVAEVAKDLGILTVAVVTKPFNFEGKKRMAFAEQGITELSKHVDSLITIPNDKLLKVLGRGISLLDAFGAANDVLKGAVQGIAELITRPGLMNVDFADVRTVMSEMGYAMMGSGVASGEDRAEEAAEMAISSPLLEDIDLSGARGVLVNITAGFDLRLDEFETVGNTIRAFASDNATVVIGTSLDPDMNDELRVTVVATGIGMDKRPEITLVTNKQVQQPVMDRYQQHGMAPLTQEQKPVAKVVNDNAPQTAKEPDYLDIPAFLRKQAD
B2: FtsZ_(L169R) (Escherichia coli FtsZ with the L169R lesion) (natural protein, E. coli, UniProt P0A9A6 1-383, looked up)
chain: B1 chain with L169R

Tests used:
[1] = biological target: the molecule itself; experiment: sedimentation assay of polymers
[2] = biological target: the molecule itself; experiment: sedimentation assay of polymers; remark: listed apart in the source

Protein | binding result [1] | binding result [2]
B1 | binds | –
B2 | – | binds
